The results in this text go back to article PMC8037807, “The Effect of Oxidized Dopamine on the Structure and Molecular Chaperone Function of the Small Heat-Shock Proteins, αB-Crystallin and Hsp27” (International Journal of Molecular Sciences, 2021).

Series [1] concerns the molecule itself. As to the kind of experiment: cross-linking; 15 μM αBc or Hsp27 incubated with 15 or 75 μM DA in 50 mM phosphate, 150 mM NaCl, pH 7.4, 24 h, 37 °C, aerobic; excess DAox removed (10 kDa filter); SDS-PAGE with DTT and boiling.
Series [2] concerns the molecule itself. As to the kind of experiment: negative-stain transmission electron microscopy; 30 μM αBc or Hsp27 incubated with 0 or 150 μM DAox; particle diameters measured.
Series [3] deals with the molecule itself. As to the kind of experiment: cross-linking; lysine-dimethylated and non-methylated sHsps reacted with a 0, 1, 5, 7.5, 10 or 20 molar excess of DA, 37 °C, 24 h, 50 mM phosphate buffer, pH 7.4; SDS-PAGE, monomer band quantified.

B1: oxidized dopamine-modified αB-crystallin (natural protein, human, UniProt P02511 1-175, looked up)
chain: MDIAIHHPWIRRPFFPFHSPSRLFDQFFGEHLLESDLFPTSTSLSPFYLRPPSFLRAPSWFDTGLSEMRLEKDRFSVNLDVKHFSPEELKVKVLGDVIEVHGKHEERQDEHGFISREFHRKYRIPADVDPLTITSSLSSDGVLTVNGPRKQVSGPERTIPITREEKPAVTAAPKK
modifications: modified and covalently cross-linked by oxidized dopamine (DAox); lysine residues involved in the cross-links; sites not mapped
notes: αB-crystallin (HspB5), human small heat-shock protein; monomeric subunit mass 20.2 kDa; same protein as m1; Made at several molar ratios of αBc to DA (1:1, 1:5, 1:10, 1:20, 1:30); All ratios are kept as one molecule; the ratio is named in each row; also called αBc:DAox; DAox-modified αBc
For B1, in series [1], the binding result is reported as “binds”.

B2: αB-crystallin (natural protein, human, UniProt P02511 1-175, looked up)
chain: MDIAIHHPWIRRPFFPFHSPSRLFDQFFGEHLLESDLFPTSTSLSPFYLRPPSFLRAPSWFDTGLSEMRLEKDRFSVNLDVKHFSPEELKVKVLGDVIEVHGKHEERQDEHGFISREFHRKYRIPADVDPLTITSSLSSDGVLTVNGPRKQVSGPERTIPITREEKPAVTAAPKK
notes: αB-crystallin (HspB5), human small heat-shock protein; monomeric subunit mass 20.2 kDa; Lys174 and Lys175 at the extreme C-terminus; Heterogeneous large oligomer in solution; also called HspB5; native αBc; source: expressed and purified as previously described [9,40,41]
Regarding B2, in series [2], the binding result was “binds”.

B3: methylated αBc reacted with DAox (natural protein, human, UniProt P02511 1-175, looked up)
chain: MDIAIHHPWIRRPFFPFHSPSRLFDQFFGEHLLESDLFPTSTSLSPFYLRPPSFLRAPSWFDTGLSEMRLEKDRFSVNLDVKHFSPEELKVKVLGDVIEVHGKHEERQDEHGFISREFHRKYRIPADVDPLTITSSLSSDGVLTVNGPRKQVSGPERTIPITREEKPAVTAAPKK
modifications: dimethylation of all lysine residues (and the amino terminus), confirmed by mass spectrometry; then modified by oxidized dopamine (DAox)
notes: αB-crystallin (HspB5), human small heat-shock protein; same protein as m1; Reacted with a 0, 1, 5, 7.5, 10 or 20 molar excess of DA; also called lysine-dimethylated αBc
For the protein B3, the binding result in series [3] was “binds”.
